Assay results taken from US20240116985A1 (published 2024).
Starred links: 1 amine or outer side, 2 acyl side, 3 side chain; linkers in the order of their positions; H or OH if unused. Positions of bridges follow the written chain, without caps; N, C: chain ends. Non-standard residues stand in square brackets, D forms with d. Primed or numbered codes have the meaning given here. PyrS2″ = (S)-3-amino-1-((pent-4-en-1-yloxy)carbonyl)pyrrolidine-3-carboxylic acid (stapling residue), C=CCCCOC(=O)N1CC[C@@](N[*:1])(C(=O)[*:2])C1; B5(21) = 2-amino-2-(pent-4-en-1-yl)hept-6-enoic acid, bis(4-pentenyl)glycine (stitching residue), C=CCCCC(CCCC=C)(N[*:1])C(=O)[*:2]; PyrS2 = (S)-3-amino-1-((pent-4-en-1-yloxy)carbonyl)pyrrolidine-3-carboxylic acid, C=CCCCOC(=O)N1CC[C@@](N[*:1])(C(=O)[*:2])C1; B5 = 2-amino-2-(pent-4-en-1-yl)hept-6-enoic acid, C=CCCCC(CCCC=C)(N[*:1])C(=O)[*:2]; Bta = N[C@@H](Cc1csc2ccccc12)C(=O)O; αAllylPro = C=CC[C@@]1(C(=O)O)CCCN1; tBuAla = CC(C)(C)C[C@H](N)C(=O)O; 3Thi = N[C@@H](Cc1ccsc1)C(=O)O; S8 = C=CCCCCCC[C@](C)(N)C(=O)O

T1: beta-catenin in DLD1 TCF/LEF luciferase reporter cells (UniProt P35222 1-781)
T1 sequence (looked up): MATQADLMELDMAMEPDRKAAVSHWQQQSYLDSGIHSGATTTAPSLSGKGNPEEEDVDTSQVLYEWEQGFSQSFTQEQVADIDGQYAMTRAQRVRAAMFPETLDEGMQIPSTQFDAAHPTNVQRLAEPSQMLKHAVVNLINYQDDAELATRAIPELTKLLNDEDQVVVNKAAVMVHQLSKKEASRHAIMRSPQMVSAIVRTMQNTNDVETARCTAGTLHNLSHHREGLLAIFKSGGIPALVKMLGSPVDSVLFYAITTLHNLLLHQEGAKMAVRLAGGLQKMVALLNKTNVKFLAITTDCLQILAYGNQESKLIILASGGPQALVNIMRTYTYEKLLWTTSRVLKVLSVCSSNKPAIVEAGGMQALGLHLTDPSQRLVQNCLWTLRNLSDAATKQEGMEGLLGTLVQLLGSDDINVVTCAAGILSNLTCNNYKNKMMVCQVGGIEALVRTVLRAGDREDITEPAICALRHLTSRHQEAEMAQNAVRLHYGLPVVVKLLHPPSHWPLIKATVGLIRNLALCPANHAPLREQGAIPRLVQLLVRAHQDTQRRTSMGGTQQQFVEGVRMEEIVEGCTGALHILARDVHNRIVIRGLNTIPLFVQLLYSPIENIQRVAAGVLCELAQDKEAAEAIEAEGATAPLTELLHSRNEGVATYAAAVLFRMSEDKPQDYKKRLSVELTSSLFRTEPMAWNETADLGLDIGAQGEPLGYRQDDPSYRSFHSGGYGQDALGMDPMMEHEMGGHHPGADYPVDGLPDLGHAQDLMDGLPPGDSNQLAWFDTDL

T2: B-cat-Halo (beta-catenin HaloTag construct expressed in HEK293 cells) (UniProt P35222 1-781)
T2 sequence (looked up): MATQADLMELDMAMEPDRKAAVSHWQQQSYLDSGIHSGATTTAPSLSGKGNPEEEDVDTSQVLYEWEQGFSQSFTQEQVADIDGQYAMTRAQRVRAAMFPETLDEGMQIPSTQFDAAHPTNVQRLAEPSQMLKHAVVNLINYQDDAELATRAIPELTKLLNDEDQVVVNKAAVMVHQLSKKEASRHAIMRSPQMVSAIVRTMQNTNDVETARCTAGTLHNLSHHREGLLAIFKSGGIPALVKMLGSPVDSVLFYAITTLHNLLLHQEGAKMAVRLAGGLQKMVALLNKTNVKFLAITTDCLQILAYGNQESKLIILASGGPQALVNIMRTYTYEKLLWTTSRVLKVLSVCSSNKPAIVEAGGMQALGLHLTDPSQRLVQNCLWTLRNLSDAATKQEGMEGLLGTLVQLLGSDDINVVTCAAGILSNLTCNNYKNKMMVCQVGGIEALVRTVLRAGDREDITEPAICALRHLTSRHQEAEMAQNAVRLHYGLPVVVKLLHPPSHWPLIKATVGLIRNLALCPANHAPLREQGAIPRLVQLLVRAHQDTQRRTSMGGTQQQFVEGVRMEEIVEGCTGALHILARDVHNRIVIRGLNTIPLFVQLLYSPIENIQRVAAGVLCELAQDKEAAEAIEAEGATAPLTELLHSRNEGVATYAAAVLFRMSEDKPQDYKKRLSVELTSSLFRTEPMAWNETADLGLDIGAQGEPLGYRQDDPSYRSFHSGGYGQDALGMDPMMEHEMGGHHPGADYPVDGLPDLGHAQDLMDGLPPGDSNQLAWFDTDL

T3: B-cat-Halo (UniProt P35222 1-781)
T3 construct: Expressed by transfection in HEK293 cells for the NanoBRET assay; also called beta-catenin HaloTag NanoBRET construct; not shown: HaloTag
T3 sequence (looked up): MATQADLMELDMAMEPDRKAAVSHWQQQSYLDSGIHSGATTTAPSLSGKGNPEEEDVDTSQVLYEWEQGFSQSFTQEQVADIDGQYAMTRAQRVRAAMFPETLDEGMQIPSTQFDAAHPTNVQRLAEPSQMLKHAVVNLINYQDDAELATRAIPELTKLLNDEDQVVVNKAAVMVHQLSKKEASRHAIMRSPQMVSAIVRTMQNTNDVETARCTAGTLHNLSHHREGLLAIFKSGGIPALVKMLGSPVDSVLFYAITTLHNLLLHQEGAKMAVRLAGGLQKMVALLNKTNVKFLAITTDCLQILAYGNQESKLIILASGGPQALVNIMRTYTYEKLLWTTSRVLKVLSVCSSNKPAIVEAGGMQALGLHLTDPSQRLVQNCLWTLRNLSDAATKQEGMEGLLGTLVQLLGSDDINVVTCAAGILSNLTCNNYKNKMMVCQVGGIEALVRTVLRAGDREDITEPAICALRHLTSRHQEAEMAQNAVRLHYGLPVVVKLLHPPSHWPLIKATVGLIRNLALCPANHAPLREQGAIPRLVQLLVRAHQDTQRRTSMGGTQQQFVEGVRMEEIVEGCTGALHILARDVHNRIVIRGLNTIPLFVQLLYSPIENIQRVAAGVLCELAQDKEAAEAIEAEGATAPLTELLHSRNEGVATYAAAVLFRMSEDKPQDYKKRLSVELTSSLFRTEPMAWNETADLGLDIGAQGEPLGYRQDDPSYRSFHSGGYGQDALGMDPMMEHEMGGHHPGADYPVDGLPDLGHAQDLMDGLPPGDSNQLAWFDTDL


Tests used:
[1] = target: T1, beta-catenin in DLD1 TCF/LEF luciferase …; assay: cell-based or functional assay
[2] = target: T2, B-cat-Halo (beta-catenin HaloTag …); assay: cell-based or functional assay
[3] = target: T3, B-cat-Halo; assay: NanoBRET Abs IC50 in HEK293 cells; Bcat-Halo, TCF4-Luc as competitor

DLD1 4% Abs IC50 [1]	NanoBRET Abs IC50 [2]	IC50 [3]	Binder
4.3 µM	5.8 µM	–	Ac-[αAllylPro]D[tBuAla][B5]DDAAFL[PyrS2][3Thi][Bta]Q-NH2 (staple 1-4, 4-11) [I-801]
16.5 µM	18.9 µM	–	Ac-[αAllylPro]D[tBuAla][B5]DDAAFN[PyrS2″][3Thi][Bta]T-NH2 (staple 1-4, 4-11) [I-814]
–	–	26 µM	Ac-[αAllylPro]DL[B5(21)]DDAAFN[S8]F[Bta]H-NH2 (staple 1-4, 4-11; not fully specified, Stapled peptide composition; also called Ac-PL3-Asp-Leu-B5-Asp-Asp-Ala-Ala-Phe-Asn-S8-Phe-BztA-His-NH2) [I-565]
